The data set in a line: protease stability score; higher = more stable; yeast display proteolysis, trypsin and chymotrypsin.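 Also: relative to predicted unfolded state with 0 unfolded-like and 1 meaning tenfold more protease.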
The sequence “SEEEKILDKLMELLSRLVHTGDEKEWADLMDPDTKLHVGDKTYIGMEKVTEFLHEMRVHHLELHDKRVIGDKARVHTNLRGVIDGRDVNLETHMIITKINGKWVIHSVEVR” gave a protease stability score of 1.02.

As for “SEEEKILEDALRLLIEVDETGNWKLLQEMIDPNVLVDINGRKYHGREQWIRLLHEFIRDAGVQRIHSDIEHIEIQGEKIIMHGMLDINGQRRRTEVIAHKYDGRWFVEEIRIR”, the protease stability score amounted to 2.11.

As to “SEEEKILKEIAHLLIRSLITGDWKILRDLMDPHTKIHILQGDKVHNFHGWKAMTETLKQKLDRIDHVNFELRHMEVFDGRVHIEGVLHLNFDGQERFTEVRIIVVVIDGKLKEFELRIH”, the protease stability score amounted to 2.16.

Turning to “SEEEKIMEELLRRIVNALQTGDEDFWSHLADPDTRFVLIQGEWSDEVHGRENALKFMEELKKRVPGMRIRVKDSRVQGEKLHVDGEIIYNGRSFDVEIRLRVVDGRIHEFQIIIR”, the protease stability score is 2.06.

Sequence “SEEEKIVDERIKILLESWDTGDWDSFIKMLDPNALSIVGEFVMHGRETVVDALDKLLKKLGVKMETHDTEHFEIYGNKARLETTIHLRVGDFHFKRRTRVHMEKVDGQWFITIYESG” had a protease stability score of 1.31.

“SEEEKKDHRQWERTFKAFLTGDEDTVHNLADPHVKTEVGDKEYHGRENFSKLISDLGVDHLNLKEIDTVNGRIHLLSEVRFNGQITKFIIIILKVNGQWHVESMEFH” registered a protease stability score of 0.441.

“SEEEKKLNHWLELWLRSVVTGDEEHLERLADPHVRNHVGDFESHGREEVLKLMEMLKRTLGAKHIRIEIHHVDVQGDKVRMDTRIIIDAENHHLTLKSRMHTRKIDGRWYLHSLEID” registered a protease stability score of 1.06.

On to “SEEEKKSKDALRFLEEVWKTGDWDDFRKMIDPHVRIEVNGRTYHGMEDAEKFARDLLKRVKNMKVSIRHIETQGDKMIVHGELNIDGVHSEIQIFTDKIDGRWLLKEVNFI”, for which the protease stability score came to 0.498.

Turning to “SEEEKLAHEYVRHIIELLETGDEQNVQDLMDPNARSVMIIDGREIYTHGRDAFSHLLKLMGFDHSRLKDIKIYDGRVHSHIEVSVNGREVEVHLIVRKVDGRWVLQETRFHLH”, the protease stability score was 1.19.

Turning to “SEEEKLFKIMMKLLLEQTETGDEHFLKHQFDPHARLEIGEFDLHGWEFMDEHVRHWRYRDMELRRLEFQGNKIETRGLIIGEYNGRRLEISVRMIVLKIDGKWIIKHVHIH”, the protease stability score was found to be 1.42.

Consider “SEEEKLLEELAKMFIELWLTGNEEHLMHLADPNVRFRQGDKRSHGRENLKRLLHELHEEIRIHDIRMKDVRFVNGRSIFDGHLIVQVNGVEIRLDAELTIISVNGKIKEIEIRHR”, for which the protease stability score was determined as 1.08.

Turning to “SEEEKLLTDWLRELEEVTRTGDEESIMRMVDPNDKMDVGDKHRHGMHAQEVWIEVFRRQFGIDNFEVRLIINHRRIVDGQAHVDGELQLIYNGRTTSLRIELIIDKFDGRWLISSIRYN”, the protease stability score worked out at 1.19.

As to “SEEEKLQREMSKRWIEEVFTGNEEVFEQLADPNTIIDINGQHLHGMETFSKWSREHIKKLGWTQFDIKMRDSKVIGNKAKLDLELHVNGKVVKVEVNLEVIDGRIKKIEERHH”, the protease stability score is -0.143.

Take “SEEEKLRKSLVELILHALHTGDWERLTRLLDPHVRWDQGDKVFHGREDFKRAWTELGVDHFQLRHIEMQGDKLHIKGEMHVNGRTIHVDLDIEIINGRIEHHRVDTK”: the protease stability score was 1.35.

In the case of “SEEEKLSRELSKLILHYLHTGDWDQITELADPNVRIHDTINGRDNDNHGWEMLIALMEQLGVDVRRFHHIRVIGDKVHMEVELNFNGRTVHAEWTFKVVDGRMKSIEIRTK”, the protease stability score turned out to be 1.34.

In turn, “SEEEKLSRELVNEFLRLWKTGDWRRFHELADPDAKQQYNVNGQNFDYHGRDEVTDAVREFLNRLGVDHFHVHDSRIIGEKKEIDGHLNFNGRTHHIEMVVVVINGRVHKIEFHVR” returned a protease stability score of 0.28.

On to “SEEEKLTREFAEMWRHTIETGDEEEMWRMADPNVRVDFDGKELHGRELFQEHFRKLGVDHFIVRRIHVQGEKLRIDGSHIYNGQHIHTELISQKVNGRWIIDQVKVH”, for which the protease stability score stood at 1.36.

For the sequence “SEEEKLWHEIIRRILHSWDTGDEDTLNELIDPNARLIIDVNGRIIRRHGWEEMHEFIEKVRRDLGADHVHFDHINIQGNKVETDVTIEIGDKKMRSHLIIIVIDGQIHELKIIHR”, the protease stability score was 1.83.

“SEEEKMVEYAIRLIDSLIRTGDERVLMSLLDPHAKMDVNGKDLIGREFLKHWTHQYKNVKLRDIKVKDAEVQGDKIRIHVELEIEFNGRRDSRDETWYIDKFDGRWLVEEIRVK” gave a protease stability score of 1.15.
